The values that follow come from patent publication US7252997.

Assay [1] concerns the target Wild-type AAV2 capsid (adeno-associated virus serotype 2 (AAV2)) (UniProt P03135). The assay can be described thus: capsid ELISA with A20 MAb on purified virus stock.
Assay [2] addresses AAV2 capsid mutant I-587 (P1 peptide inserted after amino acid 587, VP1 numbering) (adeno-associated virus serotype 2 (AAV2)) (UniProt P03135). The assay can be described thus: capsid ELISA with A20 MAb on purified virus stock.

On to A20 monoclonal antibody, for which the titer with A20 capsid ELISA in assay [1] stood at 6e+12 particles/ml; in assay [2], 3e+12 particles/ml.
